From US20180072770A1, “Influenza Virus Binding Peptides” (priority 2014, published 2018) come the findings set out here.

No end group written: not given here.

The target in experiment [1] is T1, hemagglutinin of influenza A virus X31 (A/Aichi/2/68 H3N2) (influenza A virus A/Aichi/2/68 H3N2 (X31)), P03437.
Experiment [2] has as its target T1, hemagglutinin of influenza A virus X31 …. Description: cell-based or functional assay.
Experiment [3] has the same target. The source holds these as a separate data set.
For experiment [4] the target is unchanged. Description: SPR competition, virus preincubated with peptide, immobilised fetuin.

Consider KKKKFYDYDVFY (not fully specified (C-terminus)) [reference peptide with SEQ ID NO:1 (FYDYDVFY), N-terminal (Lys)4, C-terminal amide], for which the IC50 in experiment [1] amounted to 90 µM. In addition, in experiment [2], the Hemagglutination inhibition (IC50, HAI) was found to be 163 µM and the Mean Ki(HAI), hemagglutination inhibition assay, human erythrocytes amounted to 235 µM. In experiment [3], the Kd was found to be 59 µM.
In turn, KKKKFYGYDVFF (not fully specified (C-terminus)) [peptide with SEQ ID NO:28, N-terminal (Lys)4, C-terminal amide] displayed a fold lower IC50,RB than the reference peptide SEQ ID NO:1 in experiment [4] of 4.5 fold. Also, the IC50 in experiment [1] worked out at 20 µM. In addition, in experiment [2], the Hemagglutination inhibition (IC50, HAI) amounted to 18 µM and the Mean Ki(HAI), hemagglutination inhibition assay, human erythrocytes stood at 31.9 µM.
